Laboratory results as given in the supplement of paper PMC10567573.

B1: SEC22B (parent)
chain: FPKKLAFAYLEDLHSEFDEQHGKK
B2: FBXO3 (parent)
chain: FIDTYSDVGRYIDHYAAIKKAWDD

Variants of: B1
Experiment: protein stability index of a GFP-peptide fusion (GPS, HEK-293T) (PSI 1-6); higher = more stable
Settings: c terminus: a fixed tail appended
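Further: lentivirally expressed fusions sorted by FACS into six bins by GFP to DsRed ratio, PSI derived from sequencing read proportions per bin multiplied by bin number.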

| Variant | protein stability index |
| --- | --- |
| FPKKLAFAYLEDLHSEFNEQHGKK | 2.3 |
| FPKKLAFAYLEDLHSEFDEQHGKM | 2.36 |
| FPKKLAFAYLEDLHSEFDEQHGKD | 2.68 |
| FPKKLAFAYLEDLHSEFDEQHGKP | 2.29 |
| FPKKLAFAYLEDLHSEFDEQHGKE | 2.83 |
| FPKKLAFAYLEDLHSEFDEQHGKG | 2.11 |
| FPKKLAFAYLSDLHSEFDEQHGKK | 1.78 |
| FPKKLAFAYLGDLHSEFDEQHGKK | 2.08 |
| FPKKLAFAYLNDLHSEFDEQHGKK | 2.61 |
| FPKKLAFAYLTDLHSEFDEQHGKK | 2.64 |
| FPKKLAFAYLVDLHSEFDEQHGKK | 1.77 |
| FPKKLAFAYLWDLHSEFDEQHGKK | 2.02 |
| FPKKLAFAYLEDLHSEFDEKHGKK | 2.64 |
| FPKKLAFAYLEDLHSEFDEPHGKK | 2.4 |
| FPKKLAFAYLEDLHSEFDESHGKK | 2.58 |
| FPKKLAFAYLEDLHSEFDEIHGKK | 2.03 |
| FPKKLAFAYLEDLHSEFDEAHGKK | 2.23 |
| FPKKLAFAYWEDLHSEFDEQHGKK | 2.27 |
| FPKKLAFAYKEDLHSEFDEQHGKK | 3.46 |
| FPKKLAFAYHEDLHSEFDEQHGKK | 2.75 |
| FPKKLAFAYDEDLHSEFDEQHGKK | 3.56 |
| FPKKLAFAYNEDLHSEFDEQHGKK | 3.33 |
| FPKKLAFAYEEDLHSEFDEQHGKK | 3.35 |
| FPKKLNFAYLEDLHSEFDEQHGKK | 2.56 |
| FPKKLWFAYLEDLHSEFDEQHGKK | 2.74 |
| FPKKLIFAYLEDLHSEFDEQHGKK | 2.35 |
| FPKKLEFAYLEDLHSEFDEQHGKK | 3.96 |
| FPKKLSFAYLEDLHSEFDEQHGKK | 2.69 |

| Variant | protein stability index |
| --- | --- |
| FPKKLRFAYLEDLHSEFDEQHGKK | 2.28 |
| FPKKLPFAYLEDLHSEFDEQHGKK | 3.06 |
| PPKKLAFAYLEDLHSEFDEQHGKK | 4.6 |
| QPKKLAFAYLEDLHSEFDEQHGKK | 4.51 |
| HPKKLAFAYLEDLHSEFDEQHGKK | 3.84 |
| APKKLAFAYLEDLHSEFDEQHGKK | 4.36 |
| LPKKLAFAYLEDLHSEFDEQHGKK | 3.79 |
| DPKKLAFAYLEDLHSEFDEQHGKK | 4.93 |
| FPKKLAFAYLEDLHSEFDKQHGKK | 2.37 |
| FPKKLAFAYLEDLHSEFDMQHGKK | 2.53 |
| FPKKLAFAYLEDLHSEFDAQHGKK | 2.47 |
| FPKKLAFAYLEDLHSEFDQQHGKK | 2.33 |
| FPKKLAFAYLEDLHSEFDLQHGKK | 2.6 |
| FPKKLAFAYLEDLHSEFDDQHGKK | 2.92 |
| FPKKLAFAYLEDLHSEFDCQHGKK | 2.15 |
| FPKKLAFAYLEDLHSEFDRQHGKK | 1.63 |
| FPKKLAFAYLEDLHTEFDEQHGKK | 2.41 |
| FPKKLAFAYLEDLHGEFDEQHGKK | 2.25 |
| FPKKLAFAYLEDLHQEFDEQHGKK | 2.73 |
| FPKKLAFAYLEDLHMEFDEQHGKK | 2.5 |
| FPKKLAFAYLEDLHAEFDEQHGKK | 2.15 |
| FPKKLAFAYLEDLHSEFDEQHGSK | 2.7 |
| FPKKLAFAYLEDLHSEFDEQHGLK | 2.53 |
| FPKKLAFAYLEDLHSEFDEQHGRK | 2.34 |
| FPKKLAFAYLEDLHSEFDEQHGNK | 2.66 |
| FPKKLAFAYLEDLHSEFDEQHGCK | 2.3 |
| FPKKLAFAYLEDLHSEFDEQHGFK | 2.07 |

Variants of: B2
Experiment: as above
Settings: c terminus: a fixed tail appended

| Variant | protein stability index |
| --- | --- |
| TIDTYSDVGRYIDHYAAIKKAWDD | 3.74 |
| QIDTYSDVGRYIDHYAAIKKAWDD | 3.41 |
| RIDTYSDVGRYIDHYAAIKKAWDD | 3.09 |
| VIDTYSDVGRYIDHYAAIKKAWDD | 3.28 |
| HIDTYSDVGRYIDHYAAIKKAWDD | 3.58 |
| LIDTYSDVGRYIDHYAAIKKAWDD | 3.22 |
| EIDTYSDVGRYIDHYAAIKKAWDD | 3.21 |
| YIDTYSDVGRYIDHYAAIKKAWDD | 2.09 |
| IIDTYSDVGRYIDHYAAIKKAWDD | 2.56 |
| AIDTYSDVGRYIDHYAAIKKAWDD | 3.39 |
| SIDTYSDVGRYIDHYAAIKKAWDD | 3.64 |
| MIDTYSDVGRYIDHYAAIKKAWDD | 2.79 |
| WIDTYSDVGRYIDHYAAIKKAWDD | 2.58 |
| DIDTYSDVGRYIDHYAAIKKAWDD | 3.74 |
| PIDTYSDVGRYIDHYAAIKKAWDD | 3.62 |
| CIDTYSDVGRYIDHYAAIKKAWDD | 2.87 |
| NIDTYSDVGRYIDHYAAIKKAWDD | 3.57 |
| KIDTYSDVGRYIDHYAAIKKAWDD | 2.47 |
| GIDTYSDVGRYIDHYAAIKKAWDD | 3.05 |
| FSDTYSDVGRYIDHYAAIKKAWDD | 3.14 |

| Variant | protein stability index |
| --- | --- |
| FMDTYSDVGRYIDHYAAIKKAWDD | 2.41 |
| FRDTYSDVGRYIDHYAAIKKAWDD | 3.03 |
| FDDTYSDVGRYIDHYAAIKKAWDD | 3.65 |
| FLDTYSDVGRYIDHYAAIKKAWDD | 2.39 |
| FWDTYSDVGRYIDHYAAIKKAWDD | 2.45 |
| FFDTYSDVGRYIDHYAAIKKAWDD | 2.63 |
| FADTYSDVGRYIDHYAAIKKAWDD | 2.45 |
| FYDTYSDVGRYIDHYAAIKKAWDD | 2.5 |
| FGDTYSDVGRYIDHYAAIKKAWDD | 3.01 |
| FQDTYSDVGRYIDHYAAIKKAWDD | 2.52 |
| FVDTYSDVGRYIDHYAAIKKAWDD | 2.1 |
| FTDTYSDVGRYIDHYAAIKKAWDD | 2.32 |
| FNDTYSDVGRYIDHYAAIKKAWDD | 3.21 |
| FPDTYSDVGRYIDHYAAIKKAWDD | 3 |
| FKDTYSDVGRYIDHYAAIKKAWDD | 3.03 |
| FEDTYSDVGRYIDHYAAIKKAWDD | 3.59 |
| FHDTYSDVGRYIDHYAAIKKAWDD | 2.47 |
| FCDTYSDVGRYIDHYAAIKKAWDD | 2.4 |
| FIATYSDVGRYIDHYAAIKKAWDD | 2 |
